assay: yeast display, Sf9 membrane polyspecificity reagent, FACS + sequencing; frameworks hold sequencing errors
Summary of the method: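 Synthetic nanobody libraries on Saccharomyces cerevisiae BJ5465 were galactose-induced for 36–48 hours, stained 1 hour at 4 °C with 10% biotinylated, detergent-solubilized Sf9 membrane reagent and enriched on streptavidin microbeads. FACS then separated cells into low and high (top ~1%) gates by anti-HA (expression) and streptavidin (reagent binding) fluorescence. Genes were colony-PCR amplified, MiSeq 2 × 250 sequenced and CDR-length filtered. A clone's polyreactivity label is that of its gate of origin.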

Row | Sequence | polyreactivity (PSR sort gate)
1 | QVQLLESGGGLVKAGGCRRLSCAASGSTLTPYTMGWYSEAPGIERELVAAMTQCGGTTYYADSVKGRFTISRDNAQNTVYVQMNSLKPEDTAVYYCAARSYGSTSPIRVQLYYWGQGTQVTVSS | high polyreactivity
2 | QVQLVESGGGLVQAGGSLRLSCAASGSTLDRYVMGWYRQATGKERELVAAISRNGGSTYYADSVKGRFTISRDNAKNTVYLQMNSLIPEDTAVYNCARYAGFPYTQGDYWGQGTQVTVSS | high polyreactivity
3 | QVHLVESGGGLVQAGGSLRLSCAASGSIFTYYAMGWYRQAPGKERELVAAISSDGSTTYADSVKGRFTISRDNAKNTVYLQMNSLKPEDTAVYYCAASSYNGHGYWGQGTQVTVSS | low polyreactivity
4 | QVQLVESGGGLVQAGGSLRLSCAASGRTSLRYAMGWYRQAPGKERELVAAIRYGGGSTRYADSVKGRFTISRDNAKNTVYLQMNSLKPEDTAVYYCAARYFPRIQYGRKGYDYWGQGTQVTVSS | low polyreactivity
5 | QVQLVESGGGLVQAGGSLRLSCAASGSTFSYSTMVWYRQPPGKERELVATISRRGASTYYADSVKGRFTISRDNAKNTVYLQMNSLKPEDTAVYYCAKSYYYGRSATRPEYDYWGQGTQVTVSS | high polyreactivity
6 | QVQLVESGGGLVQAGGSLRLSCAASGSTFVFYAMGWYRQAPGKERELVAAISRSGGSTYYADSVKGRFTISRDNAKNTVYLQMNSLKPEDTAVYYCNAVRFYRYGWGQGTQVTVSS | high polyreactivity
7 | QVQLVESGGGLVQAGGSLRLSCAASGRTLKYNAKGGNRQAPGKARELVAALTNSGTRTYYADSVKGRFTISRDNAKNTVYLQMNSQKPEDTAVYYCAKDSYPYLRVGHLKYRVKTYGHWGQGTQVTVSS | high polyreactivity
8 | QVQLVESGGGLVQAGGSLRLSCAASGSIFYHYAMGWYRQAPGKERELVAAISQSGGGTYYADSVKGRFTISRDNAKNTVYLQMNSLKPEDTAVYYCNRLSKQKQEFDYWGQGTQVTVSS | high polyreactivity
9 | QVQLVESGGCIVQAGGSLRLSCAASGFTFRTNTKGWYRQAPGKDRELVAAISRSGGSTYYADSVKGRFTISRDNAKNTVYLQMNSLKPEDTAVYDCNAVGRSDSYYLAYNYWGQGTQVTVSS | high polyreactivity
10 | QVQLVESGGGLVQAGGSLSLSCAASGLTFKWNAMGWYRQAPGKEREFVAANTKRAGSTYYADSVKGRFTISRDNAKNTVYIQMNSLKPEDTAVYYCAADDGYFYARYDYWGQGTQVTVSS | low polyreactivity
11 | QVQLVESGGGLVQAGGSLRLSCAASGSTFSRYPMGWSRQAPGKERELVAAISWGGNTYYADSVKGRFTISRDNAKNTVYLQMNSLQPEDTAVYYCNRYSKLYNTMDYWGQGTQVTVSS | high polyreactivity
12 | QVQLVESGGGLVQAGGSLRLSCAASGIIFYSYAMGWYRPAPGKERELVAAISTGSSTNYADSVKGRFTISRDNAKNTVYLQMNSLKPEDTAVYYCAKSTAVKPYAYRESGFIYDYWGQGTQVTVSS | low polyreactivity
13 | QVQLVESGGGLVQAGGSPRLSCAASGRTFVFKAMGWYRQAPAKERELVAAITDTTGSTYYADSVKGRFTISRDNAKNTVYLQMNSLKPEDTAVYYCNARVYRPFYYWGQGTQVTVSS | low polyreactivity
14 | QVHLVESGGGLVQAGGSLRLSCAASGSIFVHNAMGWYRQAPGKESELVAGISARGASTYYADSVKGRFTISRDNAKNTVYLQMKSLKPEDTAVYYCAADRIPGYRVYGFYYWGQGTQVTVSS | low polyreactivity
15 | QVQLVESGGGLVQAGGSLRLSCAASGITFRYYAMGWYRPAPGKERELVAALTSGGSTNYADSVKGRFTISRDNAKNTVYLQMNSLIPEDTAVYYCAATSYYRTNYGLVFLYRRNYWGQGTQVTVSS | high polyreactivity
16 | QVQLVESGGGLVQAGGSLRLSCAASGSIFYDNALGWYRQAPGKERELVAAIDDSDRTYYADSVKGRFTISRDNAKNTVYLQMNSLKPEDTAVYYCARDRWKWHYGYDYWGQGTQVTVSS | low polyreactivity
17 | QVQLVESGGGLVQAGGSLRLSCAASGSTFTDYDMGWYRQAPGKERELVAAITSGGSTNYADSVKGRFTISRDNAKNTVYLQMNSLKPEDTAVYYCAAADADRKYDYWGQGTQVTVSS | low polyreactivity
18 | QVQLVESGGCLVQAGGSLRLSCAASGRIFSGYVMGWYRQAPGKERELVAGITYRDGSTYYADSVKGRFTISRDKEKNTVYLQMNSLKPEDTAVYYCNADDYNDIPYDYWGQGTHVTVSS | low polyreactivity
19 | QVQLVESGGGLVQAGGSLRLSCAASGRIFAQYALGWYRQAPGKERELVAGIDRRGGSTYYADSVKGRFTISRDNAKNTVYLQMNSLKPEDTAVYYCNALREDPLFFVYIGGGYWGQGTQVTVSS | low polyreactivity
20 | QVQLVESGGGLVQGGGSLRLSCDASGCNFRKNAMGWYRQAPGKERDLVAAISWDGDNTYADSVKGRFTISRDNAMNNVYLQLYSLKPVYTAVSYCAAETFTYYDYWGQGTQVNVSS | high polyreactivity
21 | QVQLVESGGGLVQAGGSLRLSCASSGRTFVFYAMGWYRHAPGKERELVAAITSGTSTNYADSVKGRFTISRDNAKNTVYLQMISLKPEDTAVYYCAAYWTDVTYSIGFGYWGQGTQVTVSS | low polyreactivity
22 | QVQLVESGGGLVQAGGSLRLSCAASGSIFQYYVMGWYRQAQGKERELVAAISRGGGSTYYADSLKGRFTISRDNAKNTVYLQMNSMKPEDTAVYYCAKRTTRLAPYDYWGQGTQVTVSS | high polyreactivity
23 | QVQLVESGGGLVQAGGSLRLSCAASGIIFDGNAMGWYRQAPGKERELVAAISSRGSRTYYADSVKGRFTISRDHAKNTVYLQMNSLKPEDTAVYYCNAGYGFRSYGYDPWGQGTQVTVSS | high polyreactivity
24 | QVQLVESGGGLVQAGGSLRLSCAASGRTFYHYTMGWYTQAPGKERELVAAISSGGSTNYADSVKGRFTISRDNAKNTVYLQMNSLKPEDTAVYYCAARYRGWSGGYDYWGQGTQETVSS | high polyreactivity
25 | QVQLVESGGGLVQAGGSLRLSCAASGSIFSGYVMGWYRQAPGKERELVAAIDNSSGSTYYADSVKGRFTISRDNAKNSVYLQMNSLKPEDTAVYYCAAAYYWKAYSEYDYWGQGTQVTVSS | low polyreactivity
26 | QVQHVESGGGLVQAGGSLRLSCAASGRIFQHYPMGSYRQAPGKETEFVAAISSSSGSTYADSVKGRFTISRDNAKNTVYLQMNSLNPEDTAVYYCNRDYMPFKFYGGSHDMEYWGQGTQVTVSS | low polyreactivity
27 | QVQLVESGGGLVQAGGSLRLSCAASGSIFDVYAMGWYRQAPGKERELVAGISRSGGSTYYADSVKGRFTISRDNAKNTVYLQMNSLKPEDTAVYYCAARYTYYRGRYDYWGQGTQVTVSS | low polyreactivity
28 | QVQLVESGGGLVQAGGSLRLSCAPSGRTFIFYAMGWYRQAPGKERELVAAISSSGSGTYYADSLKGRFTISRDNAKNTVYLQMNSLKPEDTAVYSCAAAVVNSRRRPKYGYWGQGTQVTVSS | low polyreactivity
29 | QVQLVESGGGLVQAGGSLRLSCAAYGSFFPYNAMGWYRQAPGKERELVAGITRRGGSTYYADSVKGRFTISRDNAKNTVYLQINSLKPVDTAVYYCGTEVTYPWHVDEGDYWGQGTQVTVSS | low polyreactivity
30 | QVQLVESGGGLVQAGGSLPLSCAASGSTFRYNAMGWYRQAPAKERELVAAISSGSSTNYADSVKGRFTISLDNAKNTVYLQMKSLKPEDTAVYYCARRPFYYHQLDDDYWGQGTQVTVSS | low polyreactivity

Reference: the nanobody polyreactivity screen of Harvey et al. (2022)
